# The supplement of paper PMC10567573
# ± gives the standard deviation.
# Experiment: protein stability index of a GFP-peptide fusion (GPS, HEK-293T) (PSI 1-6); higher = more stable
# [1] = treatment: DMSO, c terminus: a fixed tail appended
# [2] = treatment: MLN4924 1 uM, 8 h, c terminus: a fixed tail appended
# 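Also: 24-mer peptide tiles fused after GFP, lentivirally expressed, FACS-sorted into six equal bins by GFP/DsRed ratio, decoded by Illumina sequencing, PSI is the read-weighted mean bin number.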
Sequence,protein stability index [1],protein stability index [2],"protein stability index (treatment: DMSO, c terminus: native)","protein stability index (treatment: MLN4924 1 uM, 8 h, c terminus: native)"
GEEQVELSTIEELIKDAIVSTQPA [C2CD2L],4.69 ± 0.3,4.7 ± 0.16,,
ARSGHRCVADNTNLYVFGGYNPDY [KLHDC10],2.23 ± 0.22,2.3 ± 0.36,,
PGQGGPASTPAQTAAGGQGGPGGP [NR2F2],5.25 ± 0.21,5.33 ± 0.37,,
SISLMYGGSKRKSSFFSSPPYFED [SLA],2.37 ± 0.38,2.59 ± 0.2,,
CQEYLARNARIVHLVEETRIHVLP [CPXM2],2.2 ± 0.28,2.49 ± 0.35,,
FGHLSVFSTSKWNHLLHHFVIGHL [FADS1],2.58 ± 0.41,2.76 ± 0.78,,
SMRKIVATWMLEVCEEQKCEEEVF [CCND1],2.3 ± 0.25,2.47 ± 0.17,,
MTTSIRQFTSSSSIKGSSGLGGGS [KRT17],3.58 ± 0.11,3.39 ± 0.43,,
HNRSNNKYSYTSTSDDNLLKNIEL [KCTD13],3.66 ± 0.12,3.73 ± 0.16,,
SKRMGPMTVVRMDASVQPGPFRTL [RHOBTB1],2.76 ± 0.14,2.91 ± 0.48,,
TPEELTILGETQEEEDEILPRKDY [CLCN6],5.51 ± 0.13,5.54 ± 0.21,,
PVRDECEERNRFTETREEDVTDEH [FAM9B],5.44 ± 0.21,5.66 ± 0.24,,
TRSHLWEAAQVVPDGLGLDEAREE [TRIB3],5.13 ± 0.24,5.13 ± 0.28,,
KDQQTFARSVGLKWRKVGRSLQRG [TRADD],3.27 ± 0.34,3.49 ± 0.3,,
NSSNSDIVHVEKEEVPEGMEEAAV [BCL2L13],5.6 ± 0.14,5.61 ± 0.28,,
WELHSLRHCDDDGRTENGALAPKQ [ZNF24],4.91 ± 0.16,4.95 ± 0.19,,
EGYVWRGSQLEDQALRGLEGYTWR [ZSWIM9],2.7 ± 0.22,2.67 ± 0.18,,
QAINNAINYLGAESLRPLVQTPPG [IKZF1],2.39 ± 0.29,2.25 ± 0.32,,
VSLRYSGATAASETLSGHGPLAQP [ADAMTS4],3.08 ± 0.15,3.21 ± 0.066,,
TERMDKVGDALEEVLSKALSQRTI [GADD45A],3.83 ± 0.26,3.83 ± 0.13,,
SIGALISKAHLEKVRSYVKRALAE [ALDH8A1],2.42 ± 0.51,2.6 ± 1.1,,
LMDVTGGPFDLMSRRVIAANNRIL [IMPA1],2.75 ± 0.17,2.69 ± 0.2,,
TQQELRKIREKEEWIKLDYHRRHN [IQUB],3.88 ± 0.29,3.82 ± 0.52,,

Sequence,protein stability index [1],protein stability index [2],"protein stability index (treatment: DMSO, c terminus: native)","protein stability index (treatment: MLN4924 1 uM, 8 h, c terminus: native)"
KDGKLLAATLLLALLSCCLTVVSF [TNFSF13B],3.26 ± 0.39,3.35 ± 0.32,,
AWISKIKGSPDVSASSDEPYARIQ [SMIM2],3.11 ± 0.38,3.44 ± 0.17,,
EDGPGKEEAPELDEAELDYLMDVL [SERTAD1],5.08 ± 0.12,5.01 ± 0.21,,
LQGAASHVPEGFDPTGPAGLGRPT [EHMT1],4.54 ± 0.2,4.58 ± 0.14,,
GLADVEANYVIVRAYQYTTLTSVQ [SLC35F2],2.24 ± 0.53,2.66 ± 0.43,,
GKEVSGDQIEDMFEQGKWDVFSEN [STX11],4.33 ± 0.31,4.31 ± 0.35,,
LQGVPERLLGTAGTEEKKKLIRDF [VTI1B],4.25 ± 0.44,4.63 ± 0.2,,
CLAQGWKQYQQRAFGWFRCSSCQR [RTP4],2.15 ± 0.15,2.27 ± 0.28,,
AGGATAWGDLLGEDSLAALSSVPS [SNAP91],3.99 ± 0.25,3.96 ± 0.11,,
GPAAFVDYFERNWEPRRDMWVRFR [ZSWIM9],2.4 ± 0.12,2.46 ± 0.37,,
LPYTDGLSWELLDSHLGGNARGMG [CTBP1-DT],2.98 ± 0.28,3.29 ± 0.14,,
EFLLDLGHHERSIMTDLYYLSQTD [FUT8],2.2 ± 0.36,2.47 ± 0.16,,
LSLFIPESPRWLYSQGRLSEAEEA [SLC22A15],3.19 ± 0.35,3.44 ± 0.35,,
RCRPRSLIDYKSYMDTKLLVARFL [FAM189A2],2.42 ± 0.11,2.3 ± 0.3,,
HQLDFVQVKASSPVPATPILQLEE [TRIM9],4.54 ± 0.094,4.49 ± 0.33,,
SSSSSSSSSSGPGHGEPDVLKDEL [TMEM40],5.44 ± 0.15,5.42 ± 0.21,,
PAPNKKRKSSKLIMELTGGGQESS [MYOZ1],4.82 ± 0.19,4.73 ± 0.16,,
ESKKNRVEINDLDPEVFKEMMRFI [SPOPL],1.55 ± 0.31,,,
GRGSLSSGGQTSWDSGCLAPPSTR [PLEKHN1],4.44 ± 0.24,4.15 ± 0.35,,
VEEPSSKDVMEKREDSKEAEKSGE [CHGA],5.5 ± 0.36,5.58 ± 0.32,,
RITAAEALKHPWISHRSTVASCMH [CAMK2A],2.54 ± 0.19,2.89 ± 0.19,,
NKTGVSPYSKTLVLQTSEGKALQQ [TRIM9],4.19 ± 0.14,4.22 ± 0.073,,
LIRGSTFAKAKPEIPWTSLTRKGL [PHTF1],2.25 ± 0.17,2.41 ± 0.31,,

Sequence,protein stability index [1],protein stability index [2],"protein stability index (treatment: DMSO, c terminus: native)","protein stability index (treatment: MLN4924 1 uM, 8 h, c terminus: native)"
DKILALVPETIHDELQQSFQKSHN [PRIM1],3.85 ± 0.42,3.93 ± 0.47,,
HLESKDINQEELRALEEVEMKLQK [C10orf62],5.31 ± 0.32,5.34 ± 0.24,,
AALSATGPRFLAYFGSFATVGLLW [TMEM175],3.01 ± 0.25,3.18 ± 0.72,,
MTLAYDNGINLFDTAEVYAAGKAE [KCNAB2],3.54 ± 0.29,3.8 ± 0.34,,
LNVELDPEIQKVRAQEREQIKALN [KRT71],4.74 ± 0.13,4.75 ± 0.11,,
INVWDVLKGSRVSILFGHENRVST [GNB5],2.31 ± 0.33,2.27 ± 0.34,,
PNLNETSIVSGGYGGSGDGLIPTG [ARFIP2],4.18 ± 0.13,4.45 ± 0.095,,
LGVAQRSLPLQDELAFAEDLVLDE [ESRRA],3.38 ± 0.65,3.93 ± 0.71,,
NLPFWVKEKANSLKNEIQEVEELD [SPATS1],4.7 ± 0.32,4.82 ± 0.083,,
SPDDPESVKIIFKLPNDSRVERRF [FAF2],3.36 ± 0.23,3.46 ± 0.24,,
ETEDVDYGETDFHKQDGKAGLFSQ [TMEM40],5.3 ± 0.27,5.36 ± 0.2,,
IRDIRRRGKNKMAAQNCRKRKLDT [NFE2L1],3.84 ± 0.29,3.94 ± 0.32,,
LPPGFVLKKDKKKEEKEDEISLED [ZC3H15],5.54 ± 0.46,5.45 ± 0.36,,
QQQCHEMAERLEDSVLKGMQAASS [SDE2],4.17 ± 0.33,4.2 ± 0.41,,
PGAGLRRPTYTPPSIMPQKHWVYV [ZBTB22],2.26 ± 0.051,2.04 ± 0.27,,
APQNLTRWTFEKACHPFLLGPPLV [TOR1AIP2],2.4 ± 0.21,2.08 ± 0.18,,
TTKFTGSHKERFDPSGKGKGKAGR [TPPP],4.83 ± 0.2,4.93 ± 0.32,,
HSMKPHPAITATLLDFMCRIIPNF [INTS3],2.96 ± 0.45,3 ± 0.88,,
SQEETSILRCWKCRKCIASSGCFM [RNF180],2.81 ± 0.4,2.89 ± 0.35,,
YFRHADPTWQNSIRHNLSLNKCFI [FOXJ1],2.45 ± 0.41,2.23 ± 0.31,,
THVTLLITVTQSHLVIQNLFEGMI [CDS1],3.09 ± 0.21,3.22 ± 0.16,,
SPADYLRFQDLVLRMLEYEPAARI [DYRK1B],2.56 ± 0.35,2.43 ± 0.33,,
SVMYRKWKESKGKDREYTDIIRKQ [CDC34],3.52 ± 0.18,3.76 ± 0.25,,

Sequence,protein stability index [1],protein stability index [2],"protein stability index (treatment: DMSO, c terminus: native)","protein stability index (treatment: MLN4924 1 uM, 8 h, c terminus: native)"
HTGEPLFSGSNEVDQMNRIVEVLG [DYRK1B],3.59 ± 0.21,3.57 ± 0.25,,
LIHVYLPLTSHILRAFVNSQIQGH [SNX8],3.2 ± 0.27,3.19 ± 0.52,,
DVQLGDIILTATDGLFDNMPDYMI [PPTC7],2.58 ± 0.33,2.62 ± 0.42,,
MEPATAPRPDMAPELTPEEEQATK [PTPN9],5.71 ± 0.097,5.08 ± 0.48,,
HSGSVVGAGLPQFQSISLRKIQFN [CLCN6],2.85 ± 0.24,3 ± 0.27,,
AIGVGQVDFNTLKSIGSEPHEDHV [MATN2],4.67 ± 0.24,4.88 ± 0.054,,
LTAFICFLVFILNAGLVWFFPWRE [MFSD9],2.23 ± 0.42,2.11 ± 0.51,,
QCKEWQVLMCGFPFLLLFLGNFFT [TMEM120A],2.81 ± 0.053,2.92 ± 0.53,,
ITATSLLGTRESDTEVITVEKSSP [BCL2L13],4.91 ± 0.19,5.01 ± 0.16,,
SRVGKQSFIITLGCNSVLIQFATP [CARM1],2.83 ± 0.4,2.97 ± 0.56,,
RETLIIAVLVSASIANLWLWMNQ [FATE1],,,2.54 ± 0.14,2.31 ± 0.21
AFREFDRDRDGRITVAELREAVPA [CABP4],4.65 ± 0.37,4.58 ± 0.17,,
DPGPEPEEEPGVRNGMASEGLNSS [PSD2],5.58 ± 0.25,5.44 ± 0.35,,
LSSVEAYNIRTDSWTTVTSMTTPR [KLHL12],2.79 ± 0.31,3.23 ± 0.37,,
LFEEILSNSRQLKWLSCGFMLEIV [FBXO33],3.02 ± 0.69,2.79 ± 0.57,,
SPRDEYKPLDLSDSTLSYTETEAT [SMAD6],5.45 ± 0.24,5.41 ± 0.23,,
KSFSMAKGLNARMMRGLSYSLTTS [RAB40A],2.35 ± 0.13,2.56 ± 0.25,,
FLVANFSQIETLTSVFQKKLCTAH [MATN2],2.6 ± 0.56,2.52 ± 0.49,,
PWEPPVLPILTWPVLQSRTGLVYD [HDAC6],3.46 ± 0.51,3.35 ± 0.23,,
DLRINLWNFEITNQSFNIVDIKPA [PPP2R2B],2.47 ± 0.86,2.4 ± 0.07,,
